This note sets out measurements from publication PMC4574351, “Tubulin cofactors and Arl2 are cage-like chaperones that regulate the soluble αβ-tubulin pool for microtubule dynamics” (eLife, 2015).

The target of assay [1] is TBC-DEG:αβ-tubulin complex (S. cerevisiae | porcine) (UniProt P40987).
In assay [2] the target is TBC-DEG complex (TBCD-TBCE-Arl2 GTPase heterotrimer) (S. cerevisiae) (UniProt P40987).
For assay [3] the target is unchanged. This is another data set of the same source.
For assay [4] the target is unchanged. Nature of the assay: SEC-MALS; WTC-03S5 column; purified TBC-DEG (subunits co-expressed and co-purified), αβ-tubulin, TBCC and their complexes; ternary complex with GDP·ALFx (wild type) or GTP (Q73L). (In general: In gel filtration, larger molecules generally elute earlier.)

Sequence of TBC-DEG complex (TBCD-TBCE-Arl2 GTPase heterotrimer) (S. cerevisiae) (P40987 whole entry, chain 1 of 3): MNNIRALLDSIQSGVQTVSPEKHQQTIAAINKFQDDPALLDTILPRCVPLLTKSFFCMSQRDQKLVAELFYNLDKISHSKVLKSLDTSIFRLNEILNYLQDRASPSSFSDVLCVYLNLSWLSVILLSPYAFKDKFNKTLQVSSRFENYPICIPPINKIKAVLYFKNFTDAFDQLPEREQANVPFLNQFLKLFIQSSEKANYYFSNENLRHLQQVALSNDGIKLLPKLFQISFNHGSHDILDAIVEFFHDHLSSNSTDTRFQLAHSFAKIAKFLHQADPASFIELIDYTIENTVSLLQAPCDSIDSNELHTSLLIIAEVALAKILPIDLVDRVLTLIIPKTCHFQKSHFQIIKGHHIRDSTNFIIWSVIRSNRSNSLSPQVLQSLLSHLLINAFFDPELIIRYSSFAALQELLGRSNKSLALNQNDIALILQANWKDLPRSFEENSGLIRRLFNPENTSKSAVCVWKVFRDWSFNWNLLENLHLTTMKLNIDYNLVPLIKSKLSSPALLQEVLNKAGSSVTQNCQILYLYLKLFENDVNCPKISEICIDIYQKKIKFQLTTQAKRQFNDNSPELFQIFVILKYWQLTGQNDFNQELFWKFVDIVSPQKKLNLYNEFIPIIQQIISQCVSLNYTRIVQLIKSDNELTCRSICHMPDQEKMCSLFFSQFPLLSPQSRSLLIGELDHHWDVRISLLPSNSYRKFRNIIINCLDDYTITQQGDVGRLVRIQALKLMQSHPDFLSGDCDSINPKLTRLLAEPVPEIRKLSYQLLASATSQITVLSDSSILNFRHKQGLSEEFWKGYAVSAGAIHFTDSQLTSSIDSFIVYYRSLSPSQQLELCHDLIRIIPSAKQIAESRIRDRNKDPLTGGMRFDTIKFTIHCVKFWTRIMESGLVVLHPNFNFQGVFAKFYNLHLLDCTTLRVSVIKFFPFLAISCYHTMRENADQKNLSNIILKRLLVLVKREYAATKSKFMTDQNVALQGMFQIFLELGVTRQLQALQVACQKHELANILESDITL
Sequence of TBC-DEG complex (TBCD-TBCE-Arl2 GTPase heterotrimer) (S. cerevisiae) (P39937 whole entry, chain 2 of 3, further chain): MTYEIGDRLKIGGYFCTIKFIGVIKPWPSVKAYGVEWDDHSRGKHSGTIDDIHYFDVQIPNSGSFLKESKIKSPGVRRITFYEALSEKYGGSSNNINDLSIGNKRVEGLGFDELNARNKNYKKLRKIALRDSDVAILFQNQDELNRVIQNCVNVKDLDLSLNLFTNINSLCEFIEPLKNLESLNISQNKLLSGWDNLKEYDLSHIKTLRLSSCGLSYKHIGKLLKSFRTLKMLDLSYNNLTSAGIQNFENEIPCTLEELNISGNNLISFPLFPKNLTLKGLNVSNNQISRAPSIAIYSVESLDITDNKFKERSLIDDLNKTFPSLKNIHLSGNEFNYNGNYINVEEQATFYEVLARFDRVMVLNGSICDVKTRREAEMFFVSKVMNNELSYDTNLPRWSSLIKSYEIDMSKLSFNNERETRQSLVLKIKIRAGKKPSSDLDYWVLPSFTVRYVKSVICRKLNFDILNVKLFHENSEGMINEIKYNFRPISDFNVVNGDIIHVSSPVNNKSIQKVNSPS
Sequence of TBC-DEG complex (TBCD-TBCE-Arl2 GTPase heterotrimer) (S. cerevisiae) (P39110 whole entry, chain 3 of 3, further chain): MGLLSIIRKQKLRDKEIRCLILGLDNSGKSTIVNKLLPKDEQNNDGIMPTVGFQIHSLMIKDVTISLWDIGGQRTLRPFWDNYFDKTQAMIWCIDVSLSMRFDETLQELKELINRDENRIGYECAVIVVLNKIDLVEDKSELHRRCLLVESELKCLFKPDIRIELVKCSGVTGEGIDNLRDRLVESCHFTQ

Consider “TBCC loop-deleted mutant Δ233-245 (from UniProt P46670 1-232; P46670 246-267) (natural protein)”, for which the steady-state GTP hydrolysis kcat, 1 μM TBC-DEG:1 μM TBCC-Δ233-245:1 μM αβ-tub in assay [1] stood at 5670 M⁻¹ s⁻¹.

Consider “Tubulin cofactor C (TBCC), S. cerevisiae Cin2p (from UniProt P46670 1-268) (natural protein)”, for which, in assay [2], the steady-state GTP hydrolysis kcat (malachite green), 1 μM TBC-DEG:1 μM TBCC is 12800 M⁻¹ s⁻¹.

As usually defined, the stoichiometry N is a count of units in the complex or per binding partner. In assay [2], “porcine brain αβ-tubulin dimer (from UniProt P02550 1-451; P02554 1-445) (complex)” registered a steady-state GTP hydrolysis kcat (malachite green), 1 μM TBC-DEG:1 μM αβ-tub of 6670 M⁻¹ s⁻¹; a steady-state GTP hydrolysis kcat, 1 μM TBC-DEG and 1 μM TBCC with αβ-tubulin titrated 0.25-3.0 μM (kcat 1.10 to 2.77) of 46200 M⁻¹ s⁻¹. Moreover, in assay [3], the steady-state GTP hydrolysis kcat at 3 μM αβ-tubulin, 1:3:1 TBCC:αβ-tubulin:TBC-DEG (number as in the text) was 0.05 s⁻¹. This substance also came in with a stoichiometry N in assay [4] of 1.
